Source: IntAct's records for PubMed 11069292

B1: Transcription factor PIF3 (Arabidopsis thaliana (Mouse-ear cress)), O80536 (parent)
chain: MPLFELFRLTKAKLESAQDRNPSPPVDEVVELVWENGQISTQSQSSRSRNIPPPQANSSRAREIGNGSKTTMVDEIPMSVPSLMTGLSQDDDFVPWLNHHPSLDGYCSDFLRDVSSPVTVNEQESDMAVNQTAFPLFQRRKDGNESAPAASSSQYNGFQSHSLYGSDRARDLPSQQTNPDRFTQTQEPLITSNKPSLVNFSHFLRPATFAKTTNNNLHDTKEKSPQSPPNVFQTRVLGAKDSEDKVLNESVASATPKDNQKACLISEDSCRKDQESEKAVVCSSVGSGNSLDGPSESPSLSLKRKHSNIQDIDCHSEDVEEESGDGRKEAGPSRTGLGSKRSRSAEVHNLSERRRRDRINEKMRALQELIPNCNKVDKASMLDEAIEYLKSLQLQVQIMSMASGYYLPPAVMFPPGMGHYPAAAAAMAMGMGMPYAMGLPDLSRGGSSVNHGPQFQVSGMQQQPVAMGIPRVSGGGIFAGSSTIGNGSTRDLSGSKDQTTTNNNSNLKPIKRKQGSSDQFCGSS

Variants of: B1
Conditions: with phyb_arath PHYB

Variant | effect of a mutation on the interaction
MPLFELFRLTKAKLESAQDRNPSPPVDEVVELVWENGQISTQSQSSRSRNIPPPQANSSRAREIGNGSKTTMVDEIPMSVPSLMTGLSQDDDFVPWLNHHPSLDGYCSDFLRDVSSPVTVNEQESDMAVNQTAFPLFQRRKDGNESAPAASSSQYNGFQSHSLYVSDRARDLPSQQTNPDRFTQTQEPLITSNKPSLVNFSHFLRPATFAKTTNNNLHDTKEKSPQSPPNVFQTRVLGAKDSEDKVLNESVASATPKDNQKACLISEDSCRKDQESEKAVVCSSVGSGNSLDGPSESPSLSLKRKHSNIQDIDCHSEDVEEESGDGRKEAGPSRTGLGSKRSRSAEVHNLSERRRRDRINEKMRALQELIPNCNKVDKASMLDEAIEYLKSLQLQVQIMSMASGYYLPPAVMFPPGMGHYPAAAAAMAMGMGMPYAMGLPDLSRGGSSVNHGPQFQVSGMQQQPVAMGIPRVSGGGIFAGSSTIGNGSTRDLSGSKDQTTTNNNSNLKPIKRKQGSSDQFCGSS [G165V] | decreasing interaction
